Experimental data: article PMC2873289, “A Helix Replacement Mechanism Directs Metavinculin Functions” (PLoS ONE, 2010)

Legend:
[1] = target: the molecule itself; assay: band on SDS-PAGE of the pull-down eluate, identified by Western blot; band seen in the lanes where GST-Vt and PIP2 are present
[2] = target: T1, metavinculin-ΔH1′ (lacking residues 963–983) (human, UniProt P18206 1-1134, lacking residues 963–983); assay: pull-down; GST-Vt (0.5 µM) on GST-Sepharose beads, with or without pre-incubation with 5 µM PIP2; 15 µM His8-tagged metavinculin or deletion mutant pre-activated with talin-VBS3, 1 hr 37°C; 20 mM Tris-HCl pH 8, 150 mM NaCl; eluted with glutathione, SDS-PAGE, Western blot; conditions: both partners purified
T1 construct: human metavinculin, full length (1-1,134) lacking residues 963-983 (α-helix H1′): 1-962 joined to 984-1,134; also called MV-ΔH1′; source: E. coli BL21-DE3, purified (as full-length metavinculin); not shown: His8, N-terminal, kept
T1 sequence (looked up): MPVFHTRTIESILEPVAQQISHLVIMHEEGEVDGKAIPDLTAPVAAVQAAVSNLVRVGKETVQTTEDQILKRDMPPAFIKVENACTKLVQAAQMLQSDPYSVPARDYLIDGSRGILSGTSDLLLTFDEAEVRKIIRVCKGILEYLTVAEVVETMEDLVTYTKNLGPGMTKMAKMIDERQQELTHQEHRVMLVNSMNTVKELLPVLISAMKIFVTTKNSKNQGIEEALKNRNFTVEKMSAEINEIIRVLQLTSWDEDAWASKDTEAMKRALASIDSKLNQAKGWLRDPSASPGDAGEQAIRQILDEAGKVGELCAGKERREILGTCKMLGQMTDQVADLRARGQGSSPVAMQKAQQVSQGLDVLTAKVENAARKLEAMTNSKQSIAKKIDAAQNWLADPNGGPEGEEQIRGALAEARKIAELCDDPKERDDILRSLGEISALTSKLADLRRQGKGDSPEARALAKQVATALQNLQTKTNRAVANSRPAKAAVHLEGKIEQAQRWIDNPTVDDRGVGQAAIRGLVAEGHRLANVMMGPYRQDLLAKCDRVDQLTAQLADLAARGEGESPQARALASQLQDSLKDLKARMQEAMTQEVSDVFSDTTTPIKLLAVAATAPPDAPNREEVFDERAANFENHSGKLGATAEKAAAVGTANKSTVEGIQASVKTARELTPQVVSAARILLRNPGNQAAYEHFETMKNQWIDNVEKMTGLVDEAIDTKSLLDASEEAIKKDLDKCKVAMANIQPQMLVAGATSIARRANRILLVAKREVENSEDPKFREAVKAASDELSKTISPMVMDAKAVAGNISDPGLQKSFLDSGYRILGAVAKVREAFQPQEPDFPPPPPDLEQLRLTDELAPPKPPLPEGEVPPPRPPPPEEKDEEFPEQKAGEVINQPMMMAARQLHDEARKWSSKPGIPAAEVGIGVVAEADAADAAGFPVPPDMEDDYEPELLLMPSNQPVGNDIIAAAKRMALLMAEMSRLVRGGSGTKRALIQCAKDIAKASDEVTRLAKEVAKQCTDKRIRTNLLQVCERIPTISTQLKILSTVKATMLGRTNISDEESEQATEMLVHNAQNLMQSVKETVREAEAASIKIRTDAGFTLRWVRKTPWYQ

[3] = target: T2, metavinculin-ΔH1ΔH1′ (lacking residues 895–915 and 963–983) (human, UniProt P18206 1-1134, lacking residues 895–915 | lacking residues 963–983); assay: as above; conditions: both partners purified
T2 construct: human metavinculin, full length (1-1,134) lacking residues 895-915 (H1) and 963-983 (H1′); source: E. coli BL21-DE3, purified (as full-length metavinculin); not shown: His8, N-terminal, kept
T2 sequence (looked up): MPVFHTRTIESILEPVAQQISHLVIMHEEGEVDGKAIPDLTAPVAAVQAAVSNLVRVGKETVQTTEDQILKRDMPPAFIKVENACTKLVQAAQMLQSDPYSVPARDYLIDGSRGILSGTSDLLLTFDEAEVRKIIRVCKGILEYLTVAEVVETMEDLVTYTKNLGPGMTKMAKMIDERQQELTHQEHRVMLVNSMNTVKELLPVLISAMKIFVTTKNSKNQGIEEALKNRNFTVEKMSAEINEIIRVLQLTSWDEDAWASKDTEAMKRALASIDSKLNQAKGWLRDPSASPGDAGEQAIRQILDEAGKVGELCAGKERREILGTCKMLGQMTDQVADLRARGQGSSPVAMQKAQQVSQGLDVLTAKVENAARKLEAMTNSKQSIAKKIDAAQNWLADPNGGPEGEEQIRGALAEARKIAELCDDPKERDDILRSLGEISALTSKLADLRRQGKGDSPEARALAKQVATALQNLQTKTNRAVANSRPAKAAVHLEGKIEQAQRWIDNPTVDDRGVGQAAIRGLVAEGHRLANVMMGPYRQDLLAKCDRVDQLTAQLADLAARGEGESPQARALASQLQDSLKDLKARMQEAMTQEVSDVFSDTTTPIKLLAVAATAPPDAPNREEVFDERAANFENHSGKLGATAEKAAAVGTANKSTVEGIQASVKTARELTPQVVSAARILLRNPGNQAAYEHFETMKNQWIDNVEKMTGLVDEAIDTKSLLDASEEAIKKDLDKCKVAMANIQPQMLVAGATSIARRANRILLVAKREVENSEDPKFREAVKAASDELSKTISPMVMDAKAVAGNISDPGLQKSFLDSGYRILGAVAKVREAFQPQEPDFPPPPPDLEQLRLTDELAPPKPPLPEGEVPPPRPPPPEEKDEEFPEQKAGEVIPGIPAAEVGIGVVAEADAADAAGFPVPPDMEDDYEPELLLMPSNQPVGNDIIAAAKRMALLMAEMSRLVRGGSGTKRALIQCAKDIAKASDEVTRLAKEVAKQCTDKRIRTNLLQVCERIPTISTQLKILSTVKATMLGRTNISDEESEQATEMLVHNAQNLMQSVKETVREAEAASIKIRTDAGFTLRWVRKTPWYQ

B1: GST tagged vinculin tail domain (GST-Vt; residues 879–1,066) (domain or fragment, human, UniProt P18206-2 879-1066, looked up)
chain: EEKDEEFPEQKAGEVINQPMMMAARQLHDEARKWSSKGNDIIAAAKRMALLMAEMSRLVRGGSGTKRALIQCAKDIAKASDEVTRLAKEVAKQCTDKRIRTNLLQVCERIPTISTQLKILSTVKATMLGRTNISDEESEQATEMLVHNAQNLMQSVKETVREAEAASIKIRTDAGFTLRWVRKTPWYQ
notes: human vinculin tail domain, residues 879-1,066 of vinculin (1,066-residue isoform), cloned in pGEX-4T-1; source: E. coli BL21-DE3, purified (GSTrap FF, Superdex 75)
stoichiometry N [1]: 2
binding result [2]: binds
binding result [3]: binds
